Laboratory results as given in PMC3770802 (Cytokine, 2013).

T1: IFN-αR2c/ECFP (human, UniProt P48551 27-515)
T1 sequence (looked up): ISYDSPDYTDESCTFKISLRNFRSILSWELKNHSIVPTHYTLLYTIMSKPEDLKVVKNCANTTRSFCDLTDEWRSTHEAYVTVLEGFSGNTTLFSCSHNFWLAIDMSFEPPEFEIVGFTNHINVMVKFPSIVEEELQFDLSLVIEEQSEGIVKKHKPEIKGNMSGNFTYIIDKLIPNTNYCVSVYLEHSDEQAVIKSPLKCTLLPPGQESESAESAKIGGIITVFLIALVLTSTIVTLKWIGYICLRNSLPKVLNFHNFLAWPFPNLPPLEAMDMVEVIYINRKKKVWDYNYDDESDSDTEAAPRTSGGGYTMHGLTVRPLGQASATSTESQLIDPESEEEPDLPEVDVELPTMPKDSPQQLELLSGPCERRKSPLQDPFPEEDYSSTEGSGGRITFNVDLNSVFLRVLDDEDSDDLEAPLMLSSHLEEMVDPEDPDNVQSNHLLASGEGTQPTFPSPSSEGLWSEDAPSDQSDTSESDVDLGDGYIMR

T2: IL-10R2/StFP (human, UniProt Q08334 20-325)
T2 sequence (looked up): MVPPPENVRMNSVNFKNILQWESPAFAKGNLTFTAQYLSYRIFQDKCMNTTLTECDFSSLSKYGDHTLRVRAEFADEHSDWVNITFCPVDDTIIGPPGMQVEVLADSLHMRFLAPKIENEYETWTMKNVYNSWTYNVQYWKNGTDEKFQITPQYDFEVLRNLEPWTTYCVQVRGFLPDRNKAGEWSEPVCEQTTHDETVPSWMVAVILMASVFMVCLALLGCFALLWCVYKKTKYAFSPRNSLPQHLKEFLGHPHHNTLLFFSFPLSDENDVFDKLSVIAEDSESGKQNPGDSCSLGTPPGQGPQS


How the values were obtained:
IFN-αR2c/ECFP = target: T1, IFN-αR2c/ECFP; assay: FRET or BRET
IL-10R2/StFP = target: T2, IL-10R2/StFP; assay: FRET or BRET

Binder	EC50* (relative), rarely seen (IFN-αR2c/ECFP) [pairs/cell]	EC50* (relative) (IL-10R2/StFP) [pairs/cell]	EC50* (relative), rarely seen (IL-10R2/StFP) [pairs/cell]
IFN-αR1/EYFP (receptor, human, UniProt P17181 28-557, looked up) KNLKSPQKVEVDIIDDNFILRWNRSDESVGNVTFSFDYQKTGMDNWIKLSGCQNITSTKCNFSSLKLNVYEEIKLRIRAEKENTSSWYEVDSFTPFRKAQIGPPEVHLEAEDKAIVIHISPGTKDSVMWALDGLSFTYSLVIWKNSSGVEERIENIYSRHKIYKLSPETTYCLKVKAALLTSWKIGVYSPVHCIKTTVENELPPPENIEVSVQNQNYVLKWDYTYANMTFQVQWLHAFLKRNPGNHLYKWKQIPDCENVKTTQCVFPQNVFQKGIYLLRVQASDGNNTSFWSEEIKFDTEIQAFLLPPVFNIRSLSDSFHIYIGAPKQSGNTPVIQDYPLIYEIIFWENTSNAERKIIEKKTDVTVPNLKPLTVYCVKARAHTMDEKLNKSSVFSDAVCEKTKPGNTSKIWLIVGICIALFALPFVIYAAKVFLRCINYVFFPSLKPSSSIDEYFSEQPLKNLLLSTSEEQIEKCFIIENISTIATVEETNQTDEDHKKYSSQTSQDSGNYSNEDESESKTSEELQQDFV	4	–	–
IFN-λR1/CiFP (receptor, human, UniProt Q8IU57 21-520, looked up) RPRLAPPQNVTLLSQNFSVYLTWLPGLGNPQDVTYFVAYQSSPTRRRWREVEECAGTKELLCSMMCLKKQDLYNKFKGRVRTVSPSSKSPWVESEYLDYLFEVEPAPPVLVLTQTEEILSANATYQLPPCMPPLDLKYEVAFWKEGAGNKTLFPVTPHGQPVQITLQPAASEHHCLSARTIYTFSVPKYSKFSKPTCFLLEVPEANWAFLVLPSLLILLLVIAAGGVIWKTLMGNPWFQRAKMPRALDFSGHTHPVATFQPSRPESVNDLFLCPQKELTRGVRPTPRVRAPATQQTRWKKDLAEDEEEEDEEDTEDGVSFQPYIEPPSFLGQEHQAPGHSEAGGVDSGRPRAPLVPSEGSSAWDSSDRSWASTVDSSWDRAGSSGYLAEKGPGQGPGGDGHQESLPPPEFSKDSGFLEELPEDNLSSWATWGTLPPEPNLVPGGPPVSLQTLTFCWESSPEEEEEARESEIEDSDAGSWGAESTQRTEDRGRTLGHYMAR	–	200	70
